* marks the point of attachment. Biotin = O=C1N[C@H]2[C@H](CS[C@H]2CCCCC(=O)*)N1
What was measured:
[1] = target: endogenous NF-κB1 p105 (HeLa, Jurkat and 293 cells) (UniProt P19838); assay: cell-based or functional assay
[2] = target: T1, Myc-TPL-2ΔC MEK kinase activity (Rattus norvegicus, UniProt Q63562); assay: In vitro MEK kinase assay with GST-MEK1(K207A) substrate, Myc-TPL-2ΔC; format: biochemical
T1 construct: TPL-2ΔC which lacks the C-terminal 70 amino acids; made in house; host or cells: HEK 293 cells, transient transfection, anti-Myc immunoprecipitation
Protocol: Myc-TPL-2 or Myc-TPL-2ΔC were isolated by immunoprecipitation from lysates of transiently transfected 293 cells, as described above. immunoprecipitates were washed four times in Buffer A, followed by two washes in kinase buffer (50 mM Tris-pH7.5, 150 mM NaCl, 5 mM β-glycerophosphate, 2 mM dithiothreitol, 0.1 mM sodium vanadate, 10 mM MgCl2, 1 mM EGTA, 0.01% Brij35). Beads were then resuspended in 50μl of kinase buffer plus the indicated amounts of recombinant p105 protein and incubated at 4° C. for 30 min. […] The supernatant was removed, mixed with an equal volume of 2×sample buffer, Western blotted after 8%-acrylamide SDS-PAGE and probed with anti-phospho-MEK-½ antibody. Immunoprecipitated Myc-TPL-2 or Myc-TPL-2ΔC was eluted with Laemlli sample buffer from the remaining anti-Myc mAb beads and quantified by Western blotting.
(5.6.c) The inhibition of TPL-2 MEK kinase activity by p 105498-969 may be more efficient than the isolated p105 DD as the former protein contains a binding site for the TPL-2 C-terminus. It was, therefore, interesting to determine the sensitivity of TPL2ΔC catalytic activity to inhibition by p105. The specific activity of Myc-TPL-2ΔC, isolated by immunoprecipitation from transfected 293 cell lysates, was modestly (approximately 2-3 fold) increased relative to wild type Myc-TPL-2.

[3] = target: T2, endogenous p105 (mouse 3T3 fibroblasts) (mouse, UniProt P25799 1-971); assay: anti-TPL-2 immunoprecipitation from lysates of wild type mouse 3T3 fibroblasts, Western blot
T2 sequence (looked up): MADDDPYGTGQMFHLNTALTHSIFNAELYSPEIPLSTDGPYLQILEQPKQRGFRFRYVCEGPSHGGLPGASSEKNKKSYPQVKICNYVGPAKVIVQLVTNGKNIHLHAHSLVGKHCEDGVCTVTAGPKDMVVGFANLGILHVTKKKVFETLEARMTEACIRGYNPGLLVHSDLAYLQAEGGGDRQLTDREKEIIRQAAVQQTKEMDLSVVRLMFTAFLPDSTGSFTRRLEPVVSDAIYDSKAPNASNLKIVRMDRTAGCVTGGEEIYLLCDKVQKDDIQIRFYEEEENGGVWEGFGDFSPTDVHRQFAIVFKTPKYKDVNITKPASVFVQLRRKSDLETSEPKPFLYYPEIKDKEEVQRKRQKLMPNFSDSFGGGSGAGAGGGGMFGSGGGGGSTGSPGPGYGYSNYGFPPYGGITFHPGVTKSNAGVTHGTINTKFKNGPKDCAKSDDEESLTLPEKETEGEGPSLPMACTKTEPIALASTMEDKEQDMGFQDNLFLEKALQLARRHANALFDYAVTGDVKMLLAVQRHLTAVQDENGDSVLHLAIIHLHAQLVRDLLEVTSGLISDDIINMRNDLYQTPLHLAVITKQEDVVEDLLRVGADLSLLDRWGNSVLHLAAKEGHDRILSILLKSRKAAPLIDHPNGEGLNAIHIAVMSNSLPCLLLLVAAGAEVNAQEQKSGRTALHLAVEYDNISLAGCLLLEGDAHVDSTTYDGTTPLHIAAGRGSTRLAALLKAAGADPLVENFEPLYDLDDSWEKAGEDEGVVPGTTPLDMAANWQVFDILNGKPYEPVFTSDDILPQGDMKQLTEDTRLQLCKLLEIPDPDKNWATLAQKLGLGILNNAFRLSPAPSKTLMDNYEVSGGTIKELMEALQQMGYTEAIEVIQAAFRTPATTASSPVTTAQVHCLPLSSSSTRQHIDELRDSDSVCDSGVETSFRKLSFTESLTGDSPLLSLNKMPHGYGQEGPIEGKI
Protocol: (5.5.c) To determine whether p105 regulates the steady-state levels of endogenous TPL-2 protein, cell lysates were prepared from 3T3 fibroblasts derived from wild type and NF-κB1-deficient mice. TPL-2 was readily detected by Western blotting of anti-TPL-2 immunoprecipitates from wild type fibroblasts and was associated with endogenous p105.

Myc-TPL-2ΔC = Myc-TPL-2ΔC (Homo sapiens (Human), UniProt P41279 1-397); assay: cell-based or functional assay
Myc-TPL-2 = Myc-TPL-2 (Homo sapiens (Human), UniProt P41279 1-467); assay: cell-based or functional assay
[4] = target: T3, Myc-Raf1(CAAX) MEK kinase activity (Homo sapiens, UniProt P04049); assay: In vitro MEK kinase assay, activated Raf1; format: biochemical
T3 construct: CAAX membrane-targeting motif (C); made in house

recombinant p105 541-802 = target: T4, recombinant p105 541-802 (Homo sapiens (Human), UniProt P19838 540-801); assay: surface plasmon resonance (BIAcore), biotinylated peptide on streptavidin chip
T4 construct: Made in E. coli as a GST fusion and cleaved from GST
T4 sequence: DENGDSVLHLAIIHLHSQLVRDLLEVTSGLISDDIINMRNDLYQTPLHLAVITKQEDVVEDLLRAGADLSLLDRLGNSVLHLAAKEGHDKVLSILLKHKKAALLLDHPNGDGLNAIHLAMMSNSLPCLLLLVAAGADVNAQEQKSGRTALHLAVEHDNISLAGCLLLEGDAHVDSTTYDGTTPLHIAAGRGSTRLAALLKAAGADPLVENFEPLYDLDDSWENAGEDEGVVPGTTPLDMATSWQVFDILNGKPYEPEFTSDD
Protocol: Interaction between the TPL-2 C-terminus and recombinant p105 proteins was measured by surface plasmon resonance using the BIAcore system (BIAcore AB, Uppsala, Sweden; (Szabo, A., et al. (1995) Curr. Opin. Struct. biol. 5: 699-705)). The C-terminal 70 amino acids of TPL-2 (TPL-2₃₉₈₋₄₆₇) were synthesised as a biotinylated peptide (conjugated to the equivalent of Cys398 of full length TPL-2) and immobilized on a Streptavidin-coated sensor surface (Sensorchip SA, BIAcore AB). Recombinant p105 proteins were then injected at different concentrations and resonance signals monitored. Dissociation at 25° C. was measured by flushing the TPL-2/p105 complexes with HBS-P buffer (10 MM HEPES-pH7.4, 150 mM NaCl, 0.005% (v/v) polysorbate 20; BIAcore AB). Data were evaluated using BIAevaluation software, version 3.0.2.

HA-p105(369-969) = target: T5, HA-p105(369-969) (Homo sapiens (Human), UniProt P19838 368-968); assay: co-expression in HEK293 cells, isolation of the complex from lysates
T5 construct: also called p105?N
T5 sequence: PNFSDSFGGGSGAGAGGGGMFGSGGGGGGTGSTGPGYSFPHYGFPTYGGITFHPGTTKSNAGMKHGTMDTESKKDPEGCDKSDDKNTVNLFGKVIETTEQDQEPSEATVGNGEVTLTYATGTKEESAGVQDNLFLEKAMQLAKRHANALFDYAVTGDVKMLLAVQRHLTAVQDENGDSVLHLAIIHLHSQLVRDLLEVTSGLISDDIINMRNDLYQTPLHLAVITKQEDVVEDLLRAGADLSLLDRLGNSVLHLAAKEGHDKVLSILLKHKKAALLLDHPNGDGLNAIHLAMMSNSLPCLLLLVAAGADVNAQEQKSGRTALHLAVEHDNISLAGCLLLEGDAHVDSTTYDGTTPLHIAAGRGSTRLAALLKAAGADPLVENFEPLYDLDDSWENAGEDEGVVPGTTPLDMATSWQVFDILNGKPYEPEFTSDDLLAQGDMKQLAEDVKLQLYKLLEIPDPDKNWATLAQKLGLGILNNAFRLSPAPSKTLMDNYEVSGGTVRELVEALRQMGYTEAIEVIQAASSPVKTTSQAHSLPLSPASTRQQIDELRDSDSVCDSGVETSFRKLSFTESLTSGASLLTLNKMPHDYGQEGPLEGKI

Myc-TPL-2ΔC, sequence (P41279 1-397, stated change not applied): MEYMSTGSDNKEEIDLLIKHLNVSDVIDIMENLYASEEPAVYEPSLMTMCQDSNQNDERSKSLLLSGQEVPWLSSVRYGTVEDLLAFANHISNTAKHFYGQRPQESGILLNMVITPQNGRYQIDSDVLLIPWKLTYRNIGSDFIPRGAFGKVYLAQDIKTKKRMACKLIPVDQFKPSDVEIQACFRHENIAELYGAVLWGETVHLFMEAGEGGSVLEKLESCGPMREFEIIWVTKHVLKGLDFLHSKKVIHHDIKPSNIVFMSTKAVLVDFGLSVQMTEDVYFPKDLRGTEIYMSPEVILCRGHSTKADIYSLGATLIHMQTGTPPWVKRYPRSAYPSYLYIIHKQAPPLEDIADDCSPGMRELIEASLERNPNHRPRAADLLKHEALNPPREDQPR
T1 sequence (Q63562 1-397, stated change not applied): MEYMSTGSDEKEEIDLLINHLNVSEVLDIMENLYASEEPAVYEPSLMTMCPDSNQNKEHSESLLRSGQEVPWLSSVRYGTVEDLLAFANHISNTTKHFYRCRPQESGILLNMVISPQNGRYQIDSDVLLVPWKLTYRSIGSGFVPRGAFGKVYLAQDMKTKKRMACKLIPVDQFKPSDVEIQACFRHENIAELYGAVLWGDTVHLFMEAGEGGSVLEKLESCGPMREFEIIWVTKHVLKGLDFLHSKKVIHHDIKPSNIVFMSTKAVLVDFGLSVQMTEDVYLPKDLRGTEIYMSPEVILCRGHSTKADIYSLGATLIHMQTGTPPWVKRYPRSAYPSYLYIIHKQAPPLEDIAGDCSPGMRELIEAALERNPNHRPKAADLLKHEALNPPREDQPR

TPL-2ΔC (from UniProt P41279 1-397)
NF-κB-dependent luciferase reporter gene in Jurkat T cells [1]: 12 fold

B1: TPL-2398-467 peptide: synthetic peptide corresponding to the C-terminal 70 amino acids of TPL-2 (peptide)
peptide: CTSLDSALLERKRLLSRKELELPENIADSSCTGSTEESEMLKRQRSLYIDLGALAGYFNLVRGPPTLEYG
effect on TPL-2ΔC in vitro MEK kinase activity [2]: not found to affect

B2: endogenous TPL-2 (mouse 3T3 fibroblasts) (enzyme, UniProt Q07174 1-467, looked up)
chain: MEYMSTGSDEKEEIDLLIKHLNVSEVIDIMENLYASEEPGVYEPSLMTMYPDSNQNEERSESLLRSGQEVPWLSSVRYGTVEDLLAFANHVSNMTKHFYGRRPQECGILLNMVISPQNGRYQIDSDVLLVPWKLTYRNIGSGFVPRGAFGKVYLAQDMKTKKRMACKLIPIDQFKPSDVEIQACFRHENIAELYGAVLWGDTVHLFMEAGEGGSVLEKLESCGPMREFEIIWVTKHILKGLDFLHSKKVIHHDIKPSNIVFMSTKAVLVDFGLSVKMTEDVYLPKDLRGTEIYMSPEVILCRGHSTKADIYSLGATLIHMQTGTPPWVKRYPRSAYPSYLYIIHKQAPPLEDIAGDCSPGMRELIEAALERNPNHRPKAADLLKHEALNPPREDQPRCQSLDSALFERKRLLSRKELQLPENIADSSCTGSTEESEVLRRQRSLYIDLGALAGYFNIVRGPPTLEYG
binding result [3]: binds

B3: recombinant p105498-969 protein (other)
chain: QDNLFLEKAMQLAKRHANALFDYAVTGDVKMLLAVQRHLTAVQDENGDSVLHLAIIHLHSQLVRDLLEVTSGLISDDIINMRNDLYQTPLHLAVITKQEDVVEDLLRAGADLSLLDRLGNSVLHLAAKEGHDKVLSILLKHKKAALLLDHPNGDGLNAIHLAMMSNSLPCLLLLVAAGADVNAQEQKSGRTALHLAVEHDNISLAGCLLLEGDAHVDSTTYDGTTPLHIAAGRGSTRLAALLKAAGADPLVENFEPLYDLDDSWENAGEDEGVVPGTTPLDMATSWQVFDILNGKPYEPEFTSDDLLAQGDMKQLAEDVKLQLYKLLEIPDPDKNWATLAQKLGLGILNNAFRLSPAPSKTLMDNYEVSGGTVRELVEALRQMGYTEAIEVIQAASSPVKTTSQAHSLPLSPASTRQQIDELRDSDSVCDSGVETSFRKLSFTESLTSGASLLTLNKMPHDYGQEGPLEGKI
IC50 of inhibition of TPL-2ΔC MEK kinase activity in vitro (Myc-TPL-2ΔC): 1000 nM
IC50 of inhibition of TPL-2 MEK kinase activity (phosphorylation of GST-MEK1(K207A) in vitro) (Myc-TPL-2): 90 nM
effect on Myc-Raf1(CAAX) MEK kinase activity [4]: unaffected

B4: biotinylated TPL-2398-467 peptide (peptide)
peptide: C(Biotin)TSLDSALLERKRLLSRKELELPENIADSSCTGSTEESEMLKRQRSLYIDLGALAGYFNLVRGPPTLEYG
notes: Immobilized on a streptavidin-coated BIAcore sensor surface; also called TPL-2 peptide; TPL-2 C-terminus
binding result (recombinant p105 541-802): no binding

B5: COT(131-411) (enzyme, not shown: small tags and cut ends)
chain: PWKLTYRNIGSDFIPRGAFGKVYLAQDIKTKKRMACKLIPVDQFKPSDVEIQACFRHENIAELYGAVLWGETVHLFMEAGEGGSVLEKLESCGPMREFEIIWVTKHVLKGLDFLHSKKVIHHDIKPSNIVFMSTKAVLVDFGLSVQMTEDVYFPKDLRGTEIYMSPEVILCRGHSTKADIYSLGATLIHMQTGTPPWVKRYPRSAYPSYLYIIHKQAPPLEDIADDCSPGMRELIEASLERNPNHRPRAADLLKHEALNPPREDQPRCTSLDSALLERKRL
notes: also called TPL-2 (131-411)
binding result (HA-p105(369-969)): binds

B6: recombinant p105808-892 protein (p105 DD) (other)
chain: DMKQLAEDVKLQLYKLLEIPDPDKNWATLAQKLGLGILNNAFRLSPAPSKTLMDNYEVSGGTVRELVEALRQMGYTEAIEVIQAA
IC50 of inhibition of TPL-2 MEK kinase activity in vitro (Myc-TPL-2): 550 nM
effect on Myc-Raf1(CAAX) MEK kinase activity [4]: no effect

Source: US20030219427A1, “TPL-2/COT kinase and methods of use” (priority 1998, published 2003)
